Publication PMC3684277

Biological target: HCMV capsid (icosahedral T=16 capsid shell of MCP, mCP, mC-BP and SCP) (human cytomegalovirus strain AD169)
Assay: co-sedimentation

Substance: UL32-encoded basic phosphorylated protein pp150 (natural protein)
- % decrease in chemically treated particles: 5%
